Measured values as given in paper PMC6297234, “aPKC controls endothelial growth by modulating c-Myc via FoxO1 DNA-binding ability”.

Biological target: GST-FoxO1 DBD S218D (Homo sapiens, UniProt Q12778 151-266, S218D)
Experiment: EMSA; 1 µM protein, 1 nM DNA, 1 ng/mL poly dI-dC; 20 mM Tris pH 8.0, 50 mM KCl, 5% glycerol, 2 mM DTT, 0.2 mM EDTA, 2 mM MgCl2, 0.1 mg/mL BSA, 1 ng/mL poly dI-dC; RT 30 min; 6% gel in 0.5X TBE at 4 °C
Settings: protein: recombinant; tags: GST (pDEST15, N-terminal); blunt

Sequence of GST-FoxO1 DBD S218D (Q12778 151-266 S218D): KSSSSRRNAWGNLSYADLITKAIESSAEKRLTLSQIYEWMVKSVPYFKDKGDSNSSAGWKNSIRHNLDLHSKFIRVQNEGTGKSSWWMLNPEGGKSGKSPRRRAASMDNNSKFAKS

B1: FoxO DBE duplex (dsDNA)
DNA 1: CAAAATGTAAACAAGA
DNA 2: TCTTGTTTACATTTTG
  binding result: no binding
